According to patent US20150105316A1 (TREVENA, published 2015):
Where no end group is shown, it is not given here. [ ]: non-standard residue; d: D form. Ac6c = NC1(C(=O)O)CCCCC1; Sar = CNCC(=O)O

T1: human angiotensin 2 type 1 receptor (human, UniProt P30556 1-359)
T1 sequence (looked up): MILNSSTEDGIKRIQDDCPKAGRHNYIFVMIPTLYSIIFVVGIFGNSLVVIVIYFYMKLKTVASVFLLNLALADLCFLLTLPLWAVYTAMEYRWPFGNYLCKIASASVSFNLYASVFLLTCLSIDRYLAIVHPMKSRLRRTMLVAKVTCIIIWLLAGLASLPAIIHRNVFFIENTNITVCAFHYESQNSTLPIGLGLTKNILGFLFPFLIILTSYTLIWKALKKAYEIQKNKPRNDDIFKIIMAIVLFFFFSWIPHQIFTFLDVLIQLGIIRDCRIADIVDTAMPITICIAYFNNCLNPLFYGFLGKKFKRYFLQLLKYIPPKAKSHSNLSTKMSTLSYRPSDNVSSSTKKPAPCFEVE

T2: rat angiotensin 2 type 1 receptor (rat, UniProt P25095 1-359)
T2 sequence (looked up): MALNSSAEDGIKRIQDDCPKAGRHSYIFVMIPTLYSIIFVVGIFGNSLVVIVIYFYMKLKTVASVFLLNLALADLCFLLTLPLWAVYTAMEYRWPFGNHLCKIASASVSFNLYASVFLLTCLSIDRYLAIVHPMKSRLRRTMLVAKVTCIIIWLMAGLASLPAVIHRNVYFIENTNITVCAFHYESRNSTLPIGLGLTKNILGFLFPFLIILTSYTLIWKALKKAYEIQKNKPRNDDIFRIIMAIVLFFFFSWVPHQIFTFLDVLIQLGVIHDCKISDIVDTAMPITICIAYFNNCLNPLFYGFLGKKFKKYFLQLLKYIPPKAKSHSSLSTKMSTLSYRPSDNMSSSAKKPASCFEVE


Columns and labels:
Assay in all cases: cell-based or functional assay
[1] = target: T1, human angiotensin 2 type 1 receptor
[2] = target: T2, rat angiotensin 2 type 1 receptor
[3] = target: T1, human angiotensin 2 type 1 receptor; remark: listed apart in the source
[4] = target: T2, rat angiotensin 2 type 1 receptor; remark: listed apart in the source

Binder | IP1 G-protein assay EC50 [1] [nM] | IP1 G-protein assay pEC50 [1] | IP1 G-protein assay EC50 [2] [nM] | IP1 G-protein assay Span [2] | IP1 G-protein assay pEC50 [2] | beta-arrestin2 assay EC50 [3] [nM] | beta-arrestin2 assay Span [3] | beta-arrestin2 assay pEC50 [3] | beta-arrestin2 assay EC50 [4] [nM] | beta-arrestin2 assay Span [4] | beta-arrestin2 assay pEC50 [4] | IP1 G-protein assay Span [1]
[Sar]RVY[Ac6c]HPS [SEQ ID NO: 15 (Sar-Arg-Val-Tyr-cyHex-His-Pro-Ser)] | > 1.3 | > 9.2 | > 0.6 | < 104 | < 9.2 | > 3.2 | < 101 | < 8.5 | > 3.2 | < 105 | < 8.5 | 
[Sar]RVY[Ac6c]HPT [SEQ ID NO: 14 (Sar-Arg-Val-Tyr-cyHex-His-Pro-Thr)] | > 1.3 | > 9.2 | > 0.6 |  | > 9.2 | > 3.2 | < 101 | < 8.5 | > 3.2 | < 105 | < 8.5 | 
[Sar]RVY[Ac6c]HPL [SEQ ID NO: 12 (Sar-Arg-Val-Tyr-cyHex-His-Pro-Leu)] | > 1.3 | < 9.2 | > 0.6 | < 104 | < 9.2 | > 3.2 | < 101 | < 8.5 | > 3.2 | < 105 | < 8.5 | < 103
[Sar]RVY[Ac6c]HPI [SEQ ID NO: 11 (Sar-Arg-Val-Tyr-cyHex-His-Pro-Ile)] | > 1.3 | < 9.2 | > 0.6 |  | > 9.2 | > 3.2 | < 101 | < 8.5 | > 3.2 | < 105 | < 8.5 | < 103
[Sar]RVYPHPF [SEQ ID NO: 10 (Sar-Arg-Val-Tyr-Pro-His-Pro-Phe)] | 1.3 | < 9.2 | > 0.6 | < 104 | < 9.2 | > 3.2 | < 101 | < 8.5 | 3.2 | > 105 | 8.5 | < 103
[Sar]RVYPHPM [SEQ ID NO: 9 (Sar-Arg-Val-Tyr-Pro-His-Pro-Met)] | 5 | < 9.2 | > 0.6 | < 104 | < 9.2 | > 3.2 | < 101 | < 8.5 | > 3.2 | < 105 | < 8.5 | < 103
[Sar]RVY[Ac6c]HPM [SEQ ID NO: 16 (Sar-Arg-Val-Tyr-cyHex-His-Pro-Met)] | > 1.3 | < 9.2 | > 0.6 | < 104 | < 9.2 | > 3.2 | < 101 | < 8.5 | > 3.2 | < 105 | < 8.5 | < 103
[Sar]RVY[Ac6c]HPF [SEQ ID NO: 17 (Sar-Arg-Val-Tyr-cyHex-His-Pro-Phe)] | < 1.3 | < 9.2 | > 0.6 | > 104 | < 9.2 | > 3.2 | > 101 | < 8.5 | 3.2 | < 105 | 8.5 | < 103
